As usually defined, the stoichiometry N is a count of units in the complex or per binding partner. As a reminder, the Kd is the free concentration of one partner at which half of the binding sites on the other are occupied at equilibrium, for simple one-to-one binding. A low value points to higher affinity. As a reminder, the koff is the rate constant with which the complex falls apart. A lower koff goes with slow dissociation. As a reminder, the kon is the second-order rate constant of association. The low end stands for slower complex formation, the high end for faster complex formation.

Where two headings read alike, the source gives them in different places.

Data set [1] deals with the molecule itself. Kind of data set: crystal structure.
Data set [2] concerns the molecule itself. The experiment in a line: crystal structure. The source holds these as a separate data set.
Data set [3] concerns the molecule itself. Kind of data set: crystal structure. The source holds these as a separate data set.
In data set [4] the target is T1, human GRASP55 full length (residues 1–452) (human, UniProt Q9H8Y8-1 1-452). Kind of data set: AUC.
Data set [5] addresses T2, human GRASP55 N-terminal domain (residues 1–263) (human, UniProt Q9H8Y8-1 1-263). Kind of data set: AUC.
The target in data set [6] is T1, human GRASP55 full length (residues …). Kind of data set: SPR.
In data set [7] the target is T2, human GRASP55 N-terminal domain …. Kind of data set: SPR.

B1: human KCTD5 N-module (residues 40–145) (domain or fragment)
chain: not shown
For B1, the “stoichiometry N” value in data set [1] is 5 subunits.

B2: human KCTD5 residues 34–234, seleno-methionine labeled (domain or fragment, UniProt Q9NXV2 34-234, looked up)
chain: ALAQRPGSVSKWVRLNVGGTYFLTTRQTLCRDPKSFLYRLCQADPDLDSDKDETGAYLIDRDPTYFGPVLNYLRHGKLVINKDLAEEGVLEEAEFYNITSLIKLVKDKIRERDSKTSQVPVKHVYRVLQCQEEELTQMVSTMSDGWKFEQLVSIGSSYNYGNEDQAEFLCVVSKELHNTPYGTASEPSEKAKILQERGSRM
modifications: seleno-methionine labeled (two seleno-methionine residues, M171 and M175, in the C-terminal domain)
On to B2, for which the “stoichiometry N” value in data set [2] worked out at 5 subunits.

B3: human KCTD5 residues 34–234 ("full length" construct for structural and binding analysis), native (domain or fragment, UniProt Q9NXV2 34-234, looked up)
chain: B2 chain
For B3, the “stoichiometry N” value in data set [3] was determined as 5 subunits. Besides, the results for the Kd in data set [4] and in data set [5] were 1.41 ± 0.26 µM and 8.26 ± 1.6 µM, respectively. The results for the off-rate (koff) in data set [6] and in data set [7] were 0.00103 s⁻¹ and 0.00223 s⁻¹, respectively. The values for the on-rate constant (kon) in data set [6] and in data set [7] were 870 M⁻¹ s⁻¹ and 2590 M⁻¹ s⁻¹, respectively.

For the origin of these results see paper PMC2670943 (Journal of molecular biology, 2009).
